Measured values taken from the supplement of paper PMC10567573.

B1: MLH1 (parent)
chain: YNIATRRKALKNPSEEYGKILEVV
B2: NP_015628.1 (parent)
chain: EQRNSRWNTVLRAVKAKTHHLEP

Variants of: B1
Assay: protein stability index of a GFP-peptide fusion (GPS, HEK-293T) (PSI 1-6); higher = more stable
Details: c terminus: a fixed tail appended

Variant | protein stability index
E15Y | 2
E15M | 2.54
E15F | 2.29
E15I | 2.46
E15N | 2.43
E15P | 2.21
E15C | 2.17
E15L | 1.99
E15Q | 2.15
E15S | 2.49
E15W | 1.78
E15D | 2.7
E15G | 1.76
E15K | 2.06
E15V | 1.85
E15H | 2.43
E15R | 2.46
E15A | 2.1
V24C | 3.37
V24K | 3.77
V24E | 3.98
V24W | 1.96
V24H | 3.11
V24A | 3.79
V24N | 3.64
V24F | 2.98

Variant | protein stability index
V24Q | 3.52
V24P | 4.07
V24L | 2.45
V24G | 3.32
V24D | 3.66
I20F | 2.39
I20G | 3.52
I20E | 3.54
I20V | 4.05
I20D | 4.34
I20N | 3.54
I20A | 3.46
I20R | 3.6
I20P | 3.3
I20Y | 3.18
I20S | 4.11
I20C | 3.89
I20T | 3.62
I20H | 3.59
I20M | 3.13
I20W | 2.82
I20Q | 3.8
Y17I | 2.95
Y17W | 2.66
Y17P | 4.17
Y17D | 4.3

Variant | protein stability index
Y17M | 3.11
Y17L | 2.63
Y17C | 3.05
Y17Q | 3.97
Y17K | 3.37
Y17R | 3.57
Y17V | 3.16
Y17H | 3.53
Y17S | 3.75
Y17T | 3.72
Y17A | 3.52
Y17E | 4.04
Y17N | 4.08
G18Q | 2.7
G18D | 3.15
G18V | 1.95
G18P | 3.03
G18A | 2.21
G18W | 1.46
G18R | 2.4
G18L | 2.15
G18I | 2.16
G18E | 3.29
G18Y | 2.34
G18N | 3.13
G18F | 2.16

Variant | protein stability index
G18C | 2.5
G18K | 2.97
G18T | 2.19
V23P | 3.41
V23K | 3.36
V23Q | 3.34
V23C | 3.03
V23I | 2.5
V23G | 3.62
V23A | 3.69
V23T | 2.97
V23F | 2.1
V23E | 4.21
V23Y | 2.5
V23H | 3.69
V23S | 3.66
V23N | 3.43
V23R | 3.22
V23D | 3.65
E22L | 2.54
E22D | 3.33
E22T | 2.19
E22V | 3.63
E22H | 2.43
E22K | 2.18
E22Q | 2.42

Variant | protein stability index
E22P | 2.49
E22F | 2.32
E22M | 2.09
E22Y | 2.27
E22C | 1.75
E22G | 2.42
E22A | 2.59
S14Q | 2.79
S14T | 2.85
S14R | 2.94
S14W | 1.43
E16K | 2.1
E16L | 1.99
E16G | 2.89
E16S | 2.71
E16V | 2.49
E16R | 2.5
E16P | 2.17
E16F | 1.62
E16D | 2.75
E16A | 2.37
E16Y | 1.88
E16C | 1.85
E16M | 2.15
K19A | 2.5
K19I | 1.8

Variant | protein stability index
K19C | 1.8
K19L | 1.63
K19M | 2.51
K19V | 1.74
K19E | 3.37
K19N | 3.29
K19H | 2.42
K19W | 1.65
L21Q | 3.8
L21N | 4.33
L21Y | 2.46
L21W | 2.34
L21E | 4.02
L21I | 2.17
L21V | 3.34
L21T | 3.91
L21G | 3.52
L21A | 3.69
L21H | 3.61
L21S | 3.76
L21D | 4.42
L21C | 4.26

Variants of: B2
Assay: as above
Details: c terminus: native

Variant | protein stability index
R6Y | 2.94
R6W | 2.07
R6I | 3.4
R6K | 2.67
R6N | 2.67
R6V | 3.23
R6M | 2.72
R6D | 2.7
R6S | 2.4
R6A | 2.85
R6L | 2.97
R6Q | 2.62
R6F | 3.03
R6T | 2.48
R6H | 3.45
R6E | 3.39
R6C | 2.45
R6G | 3.11
R6P | 2.51
T9C | 3
T9P | 4.6
T9V | 2.74
T9G | 3.94

Variant | protein stability index
T9H | 2.38
T9D | 2.29
T9M | 3.04
T9W | 2.3
T9E | 2.38
T9L | 2.91
T9A | 3.31
T9I | 3.02
T9Q | 3
T9F | 1.99
T9N | 3.3
T9S | 3.31
T9R | 4.1
T9Y | 2.23
R3I | 3.09
R3K | 2.79
R3S | 3.47
R3C | 3.3
R3D | 3.97
R3T | 2.9
R3E | 3.33
R3G | 3.58
R3L | 3.23

Variant | protein stability index
R3P | 3.25
R3V | 2.99
R3Y | 3.7
R3H | 2.99
R3F | 3.35
R3N | 3.07
R3Q | 2.71
R3W | 2.7
R3M | 3.25
R3A | 3.25
E1A | 2.66
E1S | 2.4
E1W | 2.94
E1I | 2.79
E1G | 2.9
E1F | 2.52
E1K | 2.12
E1C | 2.79
E1V | 2.65
E1Q | 3.13
E1L | 2.87
E1H | 2.91
E1P | 2.74

Variant | protein stability index
E1Y | 3.33
E1N | 2.91
E1T | 2.27
E1M | 2.95
E1R | 3.15
L11D | 4.52
L11A | 3.95
L11C | 2.47
L11E | 4.36
V10E | 3.92
V10A | 3.52
V10D | 4.65
V10T | 3.15
V10K | 3.15
V10Q | 3.25
V10M | 2.89
V10F | 2.74
V10P | 4.13
V10Y | 2.53
V10W | 2.78
V10C | 3.99
V10N | 3.76
V10H | 2.81

Variant | protein stability index
V10R | 2.77
V10I | 2.92
V10S | 3.63
W7A | 5.18
W7M | 5.33
W7C | 5.2
W7L | 4.66
W7R | 5.19
W7T | 5.14
W7N | 4.83
W7G | 5.71
W7S | 5.32
W7H | 5.21
W7F | 4.71
W7V | 4.88
W7K | 5.46
W7D | 5.12
N4I | 2.94
N4H | 2.48
N4E | 3.37
N4C | 2.73
N4L | 2.87
N4Y | 3.16

Variant | protein stability index
N4A | 2.5
N4P | 2.67
N4M | 2.94
N4K | 2.67
N4Q | 3.1
N4F | 3.17
N4W | 2.4
N4T | 3.23
N4S | 3.05
N4D | 3.22
N4V | 2.96
N4G | 3.71
N4R | 2.96
Q2D | 3.43
Q2W | 2.78
Q2M | 3.12
Q2E | 3.55
Q2C | 2.93
Q2I | 3.24
Q2Y | 2.97
Q2H | 3.12
Q2T | 2.38
Q2V | 2.76

Variant | protein stability index
Q2P | 3.06
Q2G | 2.74
Q2F | 3.02
Q2R | 2.9
Q2A | 2.98
Q2N | 2.88
Q2L | 2.84
Q2K | 2.71
Q2S | 2.87
N8P | 3.65
N8W | 2.78
N8G | 2.49
N8C | 2.01
N8A | 1.94
N8Q | 2.06
N8I | 2.6
N8H | 2.64
N8T | 2.16
N8R | 2.53
N8V | 3
N8M | 2.15
N8D | 2.52
N8F | 2.8

Variant | protein stability index
N8S | 2.28
N8Y | 2.61
N8L | 2.29
N8E | 1.92
S5V | 2.43
S5K | 2.28
S5T | 2.93
S5Q | 2.67
S5L | 2.48
S5H | 2.62
S5G | 3.32
S5C | 2.46
S5Y | 2.38
S5D | 2.96
S5A | 2.67
S5F | 2.61
S5W | 2.46
S5M | 2.4
S5P | 2.78
S5E | 2.91
S5R | 2.42
